# Experimental data taken from patent US20100129347A1, “HERPES VIRUS INFECTION INHIBITOR, METHOD FOR INHIBITING INFECTION WITH HERPES VIRUS, AND USE THEREOF” (Osaka University, priority 2007, published 2010).
# Test system: HSV-1
# Assay: HSV-1-GFP infection of CHO-K1 cells transfected with human PILR, ratio of infected cells by flow cytometry
# Format: cell-based
# Settings: various concentrations, FIG. 3
# Experimental: CHO-K1 cells were transiently transfected in a 10% FCS-containing F-12 culture medium using Lipofectamine 2000 (produced by Invitrogen) or GeneJuice (produced by Novagen). 1 day after the transfection, the 10% FCS-containing F-12 culture medium was replaced with a 1% FCS-containing F-12 culture medium. 2 days after the transfection, the transfectant was mixed with HSV-GFP and centrifuged at 32° C. at 2500 rpm for 2 hours. Thus, the transfectant was infected with HSV-GFP.
# Human PILR was transiently transfected to the CHO-K1 cells by using pMx-IRES-DsRed expression vector, and the CHO-K1 cells were caused to be infected with HSV-1 by using HSV-1-GFP in the presence of anti-human PILR mAb with various concentrations or control mAb. The ratio of HSV-1-infected cells was analyzed by flow cytometry.
# The CHO-K1 cells to which PILR had been transfected were caused to be infected with HSV-1 in the presence of PILR-Ig with various concentrations or Ig-fused protein without PILR that was a control. The ratio of the infected cells was analyzed by flow cytometry. Since PILR-Ig directly binds to gB of HSV-1, it is considered that there is a possibility that PILR-Ig blocks interaction between HSV-1 and PILR on the surface of a cell.
molecule,measurement,value
"control Ig-fused protein: Ig-fused protein without PILR used as control; purified human CD200-Ig fusion protein (protein, left off: a dimerising Fc or GST) QVQVVTQDEREQLYTPASLKCSLQNAQEALIVTWQKKKAVSPENMVTFSENHGVVIQPAYKDKINITQLGLQNSTITFWNITLEDEGCYMCLFNTFGFGKISGTACLTVYVQPIVSLHYKFSEDHLNITCSATARPAPMVFWKVPRSGIENSTVTLSHPNGTTSVTSILHIKDPKNQVGKEVICQVLHLGTVTDFKQTVNKG",blocking of HSV-1 infection of PILR-transfected CHO-K1 cells,not blocked
